We go through twelve substances from publication PMC10367076, “Mechanistic and Structural Insights into a Divergent PLP-Dependent L-Enduracididine Cyclase from a Toxic Cyanobacterium” (ACS Catalysis, 2023).

In data set [1] the test system is N=C(N)NC[C@@H](O)C[C@H](N)C(=O)O. Nature of the data set: purified protein. The conditions noted are these: KPi buffer; PLP cofactor co-purified; cyclodehydration to L-enduracididine.
Data set [2] deals with GntC E9A (Sphaerospermopsis torques-reginae ITEP-024). Nature of the data set: SEC; analytical size exclusion chromatography of purified wild-type GntC and mutants.
Data set [3] has as its target GntC E9D (Sphaerospermopsis torques-reginae ITEP-024). The description is as above.
Data set [4] concerns the target GntC E9Q (Sphaerospermopsis torques-reginae ITEP-024). Described as above.
Data set [5] addresses GntC K219A (Sphaerospermopsis torques-reginae ITEP-024). The data set is described as above.
Data set [6] has as its target GntC N52A (Sphaerospermopsis torques-reginae ITEP-024). The description is as above.
Data set [7] deals with GntC N52D (Sphaerospermopsis torques-reginae ITEP-024). Described as above.
Data set [8] addresses GntC N52Q (Sphaerospermopsis torques-reginae ITEP-024). The data set is described as above.
Data set [9] concerns the target GntC S25A (Sphaerospermopsis torques-reginae ITEP-024). The description is as above.
Data set [10] concerns the target GntC T84A (Sphaerospermopsis torques-reginae ITEP-024). Described as above.
Data set [11] addresses GntC T84V (Sphaerospermopsis torques-reginae ITEP-024). Described as above.
Data set [12] has as its target Sphaerospermopsis torques-reginae ITEP-024 GntC (Sphaerospermopsis torques-reginae ITEP-024). The data set is described as above.

With “GntC (Sphaerospermopsis torques-reginae ITEP-024)”, in [1], the Km was 150 ± 80 µM and the kcat stood at 0.0061 ± 0.008 min^–1. In data set [2], GntC E9A (enzyme) had a stoichiometry N of 2. In data set [3], GntC E9D (enzyme) registered a stoichiometry N of 2. For GntC E9Q (enzyme), the stoichiometry N in data set [4] was 2. In data set [5], GntC K219A (enzyme) yielded a stoichiometry N of 2. GntC N52A (enzyme) came in with a stoichiometry N in data set [6] of 2. As to GntC N52D (enzyme), in [7], the stoichiometry N was 2. GntC N52Q (enzyme) showed a stoichiometry N in [8] of 2. Substance GntC S25A (enzyme) returned a stoichiometry N in data set [9] of 2. The substance GntC T84A (enzyme) returned a stoichiometry N in data set [10] of 2. In data set [11], GntC T84V (enzyme) returned a stoichiometry N of 2.

As to “Sphaerospermopsis torques-reginae ITEP-024 GntC (enzyme)”, the stoichiometry N in data set [12] came out at 2.
